Where two headings read alike, the source gives them in different places. Bridges are numbered along the chain shown (N, C = ends). Where no end group is shown, it is not given here. [ ]: non-standard residue; d: D form. PhLac = O=C(O)[C@@H](O)Cc1ccccc1
B1: [PLA6, D9, E16, E24K28(lactam)]G(6~29) (peptide)
peptide: [PhLac]TSDYSKYLDERRAQDFVEWLMKT-NH2
modifications: lactam 19-23; N-terminus assumed
SMILES: CSCC[C@@H]1NC(=O)[C@H](CC(C)C)NC(=O)[C@H](Cc2c[nH]c3ccccc23)NC(=O)[C@@H](NC(=O)[C@@H](NC(=O)[C@H](Cc2ccccc2)NC(=O)[C@H](CC(=O)O)NC(=O)[C@H](CCC(N)=O)NC(=O)[C@H](C)NC(=O)[C@H](CCCNC(=N)N)NC(=O)[C@H](CCCNC(=N)N)NC(=O)[C@H](CCC(=O)O)NC(=O)[C@H](CC(=O)O)NC(=O)[C@H](CC(C)C)NC(=O)[C@H](Cc2ccc(O)cc2)NC(=O)[C@H](CCCCN)NC(=O)[C@H](CO)NC(=O)[C@H](Cc2ccc(O)cc2)NC(=O)[C@H](CC(=O)O)NC(=O)[C@H](CO)NC(=O)[C@@H](NC(=O)[C@@H](O)Cc2ccccc2)[C@@H](C)O)C(C)C)CCC(=O)NCCCC[C@@H](C(=O)N[C@H](C(N)=O)[C@@H](C)O)NC1=O
B2: [A2E3, E16K20(Lactam), D28]G(1~29) (peptide)
peptide: HAEGTFTSEYSKYLDERRAKDFVQWLMDT-NH2
modifications: lactam 16-20; N-terminus assumed
SMILES: CSCC[C@H](NC(=O)[C@H](CC(C)C)NC(=O)[C@H](Cc1c[nH]c2ccccc12)NC(=O)[C@H](CCC(N)=O)NC(=O)[C@@H](NC(=O)[C@H](Cc1ccccc1)NC(=O)[C@H](CC(=O)O)NC(=O)[C@@H]1CCCCNC(=O)CC[C@H](NC(=O)[C@H](CC(=O)O)NC(=O)[C@H](CC(C)C)NC(=O)[C@H](Cc2ccc(O)cc2)NC(=O)[C@H](CCCCN)NC(=O)[C@H](CO)NC(=O)[C@H](Cc2ccc(O)cc2)NC(=O)[C@H](CCC(=O)O)NC(=O)[C@H](CO)NC(=O)[C@@H](NC(=O)[C@H](Cc2ccccc2)NC(=O)[C@@H](NC(=O)CNC(=O)[C@H](CCC(=O)O)NC(=O)[C@H](C)NC(=O)[C@@H](N)Cc2c[nH]cn2)[C@@H](C)O)[C@@H](C)O)C(=O)N[C@@H](CCCNC(=N)N)C(=O)N[C@@H](CCCNC(=N)N)C(=O)N[C@@H](C)C(=O)N1)C(C)C)C(=O)N[C@@H](CC(=O)O)C(=O)N[C@H](C(N)=O)[C@@H](C)O
B3: [PLA6, D9, E16, K20E24(Lactam), D28]G(6-29) (peptide)
peptide: [PhLac]TSDYSKYLDERRAKDFVEWLMDT-NH2
modifications: lactam 15-19; N-terminus assumed
SMILES: CSCC[C@H](NC(=O)[C@H](CC(C)C)NC(=O)[C@H](Cc1c[nH]c2ccccc12)NC(=O)[C@@H]1CCC(=O)NCCCC[C@H](NC(=O)[C@H](C)NC(=O)[C@H](CCCNC(=N)N)NC(=O)[C@H](CCCNC(=N)N)NC(=O)[C@H](CCC(=O)O)NC(=O)[C@H](CC(=O)O)NC(=O)[C@H](CC(C)C)NC(=O)[C@H](Cc2ccc(O)cc2)NC(=O)[C@H](CCCCN)NC(=O)[C@H](CO)NC(=O)[C@H](Cc2ccc(O)cc2)NC(=O)[C@H](CC(=O)O)NC(=O)[C@H](CO)NC(=O)[C@@H](NC(=O)[C@@H](O)Cc2ccccc2)[C@@H](C)O)C(=O)N[C@@H](CC(=O)O)C(=O)N[C@@H](Cc2ccccc2)C(=O)N[C@@H](C(C)C)C(=O)N1)C(=O)N[C@@H](CC(=O)O)C(=O)N[C@H](C(N)=O)[C@@H](C)O
B4: [PLA6, D9, K12E16(Lactam), D28]G(6-29) (peptide)
peptide: [PhLac]TSDYSKYLDERRAQDFVQWLMDT-NH2
modifications: lactam 7-11; N-terminus assumed
SMILES: CSCC[C@H](NC(=O)[C@H](CC(C)C)NC(=O)[C@H](Cc1c[nH]c2ccccc12)NC(=O)[C@H](CCC(N)=O)NC(=O)[C@@H](NC(=O)[C@H](Cc1ccccc1)NC(=O)[C@H](CC(=O)O)NC(=O)[C@H](CCC(N)=O)NC(=O)[C@H](C)NC(=O)[C@H](CCCNC(=N)N)NC(=O)[C@H](CCCNC(=N)N)NC(=O)[C@@H]1CCC(=O)NCCCC[C@H](NC(=O)[C@H](CO)NC(=O)[C@H](Cc2ccc(O)cc2)NC(=O)[C@H](CC(=O)O)NC(=O)[C@H](CO)NC(=O)[C@@H](NC(=O)[C@@H](O)Cc2ccccc2)[C@@H](C)O)C(=O)N[C@@H](Cc2ccc(O)cc2)C(=O)N[C@@H](CC(C)C)C(=O)N[C@@H](CC(=O)O)C(=O)N1)C(C)C)C(=O)N[C@@H](CC(=O)O)C(=O)N[C@H](C(N)=O)[C@@H](C)O
B5: [PLA6, D9, E16K20(lactam), D28]G(6-29) (peptide)
peptide: [PhLac]TSDYSKYLDERRAKDFVQWLMDT-NH2
modifications: lactam 11-15
B6: [A2E3, E16K20(Lactam), D28]G(2~29) (peptide)
peptide: AEGTFTSEYSKYLDERRAKDFVQWLMDT-NH2
modifications: lactam 15-19
B7: D9, K12E16(Lactam) Cex glucagon(6-39) (Table 13, peptide 4) (peptide)
peptide: FTSDYSKYLDERRAQDFVQWLMNTGPSSGAPPPS
modifications: lactam 7-11; not fully specified
B8: E9, E16K20(lactam) Cex glucagon(6-39) (Table 13, peptide 3) (peptide)
peptide: FTSEYSKYLDERRAKDFVQWLMNTGPSSGAPPPS
modifications: lactam 11-15
B9: E9, K12E16(lactam) Cex glucagon(6-39) (Table 13, peptide 2) (peptide)
peptide: FTSEYSKYLDERRAQDFVQWLMNTGPSSGAPPPS
modifications: lactam 7-11
B10: E9, K12, E16 Cex glucagon(6-39) (Table 13, peptide 1) (peptide)
peptide: FTSEYSKYLDERRAQDFVQWLMNTGPSSGAPPPS
B11: [E9, E16K20(lactam), D28]G(4~29) (peptide)
peptide: GTFTSEYSKYLDERRAKDFVQWLMDT-NH2
modifications: lactam 13-17; N-terminus assumed
SMILES: CSCC[C@H](NC(=O)[C@H](CC(C)C)NC(=O)[C@H](Cc1c[nH]c2ccccc12)NC(=O)[C@H](CCC(N)=O)NC(=O)[C@@H](NC(=O)[C@H](Cc1ccccc1)NC(=O)[C@H](CC(=O)O)NC(=O)[C@@H]1CCCCNC(=O)CC[C@H](NC(=O)[C@H](CC(=O)O)NC(=O)[C@H](CC(C)C)NC(=O)[C@H](Cc2ccc(O)cc2)NC(=O)[C@H](CCCCN)NC(=O)[C@H](CO)NC(=O)[C@H](Cc2ccc(O)cc2)NC(=O)[C@H](CCC(=O)O)NC(=O)[C@H](CO)NC(=O)[C@@H](NC(=O)[C@H](Cc2ccccc2)NC(=O)[C@@H](NC(=O)CN)[C@@H](C)O)[C@@H](C)O)C(=O)N[C@@H](CCCNC(=N)N)C(=O)N[C@@H](CCCNC(=N)N)C(=O)N[C@@H](C)C(=O)N1)C(C)C)C(=O)N[C@@H](CC(=O)O)C(=O)N[C@H](C(N)=O)[C@@H](C)O
B12: PLA 6, D9, D28 glucagon D9(6-29) analog (Table 15, peptide 7) (peptide)
peptide: FTSDYSKYLDSRRAQDFVQWLMDT
modifications: first residue is phenyl lactic acid (PLA)
B13: ANK2 (Bayer peptide) (peptide)
peptide: HSQGTFTSDYARYLDARRAREFIKWLVRGRG
B14: [PLA6, E9, K12E16(Lactam)] Cex glucagon(6-39) (Table 13, peptide 5) (peptide)
peptide: [PhLac]TSEYSKYLDERRAQDFVQWLMNTGPSSGAPPPS
modifications: lactam 7-11; not fully specified

Experiments:
Assay in all cases: cell-based or functional assay
GLP-1 receptor [1] = target: T1, GLP-1 receptor (UniProt P43220 24-463, limits assumed)
glucagon receptor [2] = target: T2, glucagon receptor (UniProt P47871 26-477, limits assumed)
T2 sequence (P47871 26-477 limits assumed): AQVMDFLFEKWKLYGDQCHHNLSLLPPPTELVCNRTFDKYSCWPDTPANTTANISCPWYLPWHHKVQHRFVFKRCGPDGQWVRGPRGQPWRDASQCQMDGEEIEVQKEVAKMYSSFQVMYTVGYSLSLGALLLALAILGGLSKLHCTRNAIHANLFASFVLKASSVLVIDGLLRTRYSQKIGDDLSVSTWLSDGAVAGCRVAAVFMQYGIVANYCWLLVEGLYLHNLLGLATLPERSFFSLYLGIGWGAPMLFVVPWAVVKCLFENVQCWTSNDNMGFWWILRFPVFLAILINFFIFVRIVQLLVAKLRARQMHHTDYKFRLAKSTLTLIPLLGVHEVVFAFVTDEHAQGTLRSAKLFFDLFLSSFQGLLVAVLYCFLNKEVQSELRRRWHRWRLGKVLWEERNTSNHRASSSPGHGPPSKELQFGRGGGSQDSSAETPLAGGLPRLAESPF

GLP-1 receptor [3] = target: T1, GLP-1 receptor; remark: listed apart in the source
glucagon receptor [4] = target: T2, glucagon receptor; remark: listed apart in the source
GLP-1 receptor [5] = target: T1, GLP-1 receptor; remark: listed apart in the source
Target sequence in this assay (P43220 24-463 limits assumed): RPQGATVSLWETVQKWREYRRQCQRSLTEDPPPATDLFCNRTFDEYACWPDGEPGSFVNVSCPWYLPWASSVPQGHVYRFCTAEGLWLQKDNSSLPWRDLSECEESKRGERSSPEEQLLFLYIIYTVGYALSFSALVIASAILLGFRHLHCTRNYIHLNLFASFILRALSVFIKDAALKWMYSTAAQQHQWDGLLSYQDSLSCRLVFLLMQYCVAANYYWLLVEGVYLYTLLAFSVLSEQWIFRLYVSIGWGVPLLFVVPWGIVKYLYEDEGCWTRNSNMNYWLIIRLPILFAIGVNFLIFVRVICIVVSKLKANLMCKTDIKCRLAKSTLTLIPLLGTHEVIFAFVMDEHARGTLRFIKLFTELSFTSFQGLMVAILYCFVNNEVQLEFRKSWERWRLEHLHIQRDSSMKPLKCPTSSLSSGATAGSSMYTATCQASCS

glucagon receptor [6] = target: T2, glucagon receptor; remark: listed apart in the source

Row | Binder | GLP-1 EC50 (GLP-1 receptor [1]) | Glucagon IC50 (glucagon receptor [2]) | Glu IC50 (glucagon receptor [6]) | also measured
1 | B1 | 289 nM | 22 nM | – | –
2 | B2 | 0.2 nM | – | – | Glucagon IC50 (PA = partial antagonist) (glucagon receptor [2]): 130 nM
3 | B3 | 239 nM | 74 nM | – | –
4 | B4 | 177 nM | 63 nM | – | GLP-1 EC50 (GLP-1 receptor [3]): 21 nM; Glucagon IC50 (glucagon receptor [4]): 13 nM
5 | B5 | – | 10 to 30 nM | – | GLP-1 EC50 (GLP-1 receptor [3]): 4 nM; Glucagon IC50 (glucagon receptor [4]): 6 nM
6 | B6 | – | 63 nM | – | –
7 | B7 | – | – | 828 nM | GLP-1 EC50 (GLP-1 receptor [5]): 119 nM; GLP-1 EC50 (column without a head in this part of Table 15) (GLP-1 receptor [3]): 18 nM
8 | B8 | – | – | 42 nM | GLP-1 EC50 (GLP-1 receptor [5]): 36 nM
9 | B9 | – | – | 2010 nM | GLP-1 EC50 (GLP-1 receptor [5]): 63 nM
10 | B10 | – | – | 762 nM | –
11 | B11 | 151 nM | 10 to 30 nM | – | –
12 | B12 | – | – | – | GLP-1 EC50 (GLP-1 receptor [3]): ~700 nM
13 | B13 | 0.28 nM | – | – | –
14 | B14 | – | – | 72 nM | GLP-1 EC50 (GLP-1 receptor [5]): 6 nM

From patent US20130123462A1 (INDIANA UNIVERSITY RESEARCH AND TECHNOLOGY, published 2013)
